According to publication PMC4612562, “Coronin 2A (CRN5) expression is associated with colorectal adenoma-adenocarcinoma sequence and oncogenic signalling” (BMC Cancer, 2015):

Target: T1, His6-PRMT5 (UniProt O14744 1-637)
T1 construct: PRMT5, cDNA AF167572.1 in pReceiver-B01 (GeneCopoeia EX-V1247-B01); also called protein arginine N-methyltransferase 5; source: E. coli BL21, purified (Ni-beads)
Assay: pull-down; GST-CRN5 on glutathione-sepharose beads as bait; TEV-cleaved MAPK14 or purified His6-PRMT5 as prey; 50 mM Tris/HCl pH 8.0, 150 mM NaCl, 0.5 % NP-40; three washes; SDS-PAGE and immunoblot
Conditions: both partners purified

T1 sequence (O14744 whole entry): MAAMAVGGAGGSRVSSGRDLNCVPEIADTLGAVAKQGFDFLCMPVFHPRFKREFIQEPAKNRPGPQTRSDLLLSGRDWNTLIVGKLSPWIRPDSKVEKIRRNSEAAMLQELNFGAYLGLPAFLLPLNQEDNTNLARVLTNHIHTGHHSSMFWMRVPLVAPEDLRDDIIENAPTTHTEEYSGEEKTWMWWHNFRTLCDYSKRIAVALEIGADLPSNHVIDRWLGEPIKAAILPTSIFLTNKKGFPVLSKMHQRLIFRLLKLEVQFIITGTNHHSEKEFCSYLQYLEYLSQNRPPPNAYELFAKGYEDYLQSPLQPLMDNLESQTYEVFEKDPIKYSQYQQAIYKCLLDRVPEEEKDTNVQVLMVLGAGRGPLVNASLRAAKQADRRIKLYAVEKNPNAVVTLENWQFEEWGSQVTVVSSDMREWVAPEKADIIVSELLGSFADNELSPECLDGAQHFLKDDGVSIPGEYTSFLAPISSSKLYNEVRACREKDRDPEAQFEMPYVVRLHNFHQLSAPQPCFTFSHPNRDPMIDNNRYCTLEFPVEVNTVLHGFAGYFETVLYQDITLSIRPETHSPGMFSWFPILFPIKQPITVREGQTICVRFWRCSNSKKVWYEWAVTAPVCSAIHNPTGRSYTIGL

- binding result: binds
B1: GST-CRN5 (coronin 2A) (natural protein, human, UniProt Q92828 1-525, looked up)
chain: MSWHPQYRSSKFRHVFGKPASKENCYDSVPITRSVHDNHFCAVNPHFIAVVTECAGGGAFLVIPLHQTGKLDPHYPKVCGHRGNVLDVKWNPFDDFEIASCSEDATIKIWSIPKQLLTRNLTAYRKELVGHARRVGLVEWHPTAANILFSAGYDYKVMIWNLDTKESVITSPMSTISCHQDVILSMSFNTNGSLLATTCKDRKIRVIDPRAGTVLQEASYKGHRASKVLFLGNLKKLMSTGTSRWNNRQVALWDQDNLSVPLMEEDLDGSSGVLFPFYDADTSMLYVVGKGDGNIRYYEVSADKPHLSYLTEYRSYNPQKGIGVMPKRGLDVSSCEIFRFYKLITTKSLIEPISMIVPRRSESYQEDIYPPTAGAQPSLTAQEWLSGMNRDPILVSLRPGSELLRPHPLPAERPIFNSMAPASPRLLNQTEKLAAEDGWRSSSLLEEKMPRWAAEHRLEEKKTWLTNGFDVFECPPPKTENELLQMFYRQQEEIRRLRELLTQREVQAKQLELEIKNLRMGSEQL
notes: coronin 2A (CRN5), human cDNA NM_052820 (origene SC109892) cloned into pGEX-4T-1; pGEX-4T-1 normally places GST at the N-terminus (surmised); also called coronin 4; ClipinB; source: E. coli BL21, purified on glutathione beads (pull-down); E. coli lysate captured on CRN5 mAb K77-578-1 / Protein G microbeads (co-immunoprecipitation)
